Assay results published in US20100260668A1 (published 2010).
Values joined by “and” are separate entries in the source; they are usually repeats but may differ in a detail not shown here. Equal entries are not always repeated.

Columns and labels:
[1] = molecular target: T1, CD40/FC (CD40 ECD/FC chimera-His tag) (UniProt P25942 21-193, limits assumed); experiment: Direct Bind ELISA, antigen on plate
T1 construct: extracellular domain; Bought reagent
Protocol: (§1) Enzyme Linked Immunosorbent Assays to screen for antibodies that bind a desired target antigen were performed as follows. […] Plates were washed four times with PBS containing 0.02% Tween 20. Plates were blocked by the addition of 300 μL/well blocking solution (non-fat dry milk powder, various retail suppliers, diluted to 2% in PBS) for ½ hour at room temperature. Plates were washed four times after blocking with PBS containing 0.02% Tween 20.
(§2) Alternatively, one hundred microliters per well of 10 μg/ml of Histidine (His) tagged desired target antigen (R&D Systems, Minneapolis, Minn.) was added to ELISA plates coated with monoclonal mouse anti-polyHistidine antibody as described above and incubated for 1 hour at room temperature. Wells were washed four times with PBS containing 0.02% Tween 20.
(§3) One hundred microliters of antibody or DVD-Ig preparations diluted in blocking solution as described above was added to the desired target antigen plate or desired target antigen/FC fusion plate or the anti-polyHistidine antibody/His tagged desired target antigen plate prepared as described above and incubated for 1 hour at room temperature. Wells are washed four times with PBS containing 0.02% Tween 20.

[2] = molecular target: T1, CD40/FC (CD40 ECD/FC chimera-His tag); experiment: Direct Bind ELISA, antigen on plate; N-terminal VD
Protocol: as §1, §2, §3

[3] = molecular target: CD80/FC (B7-1 ECD/FC chimera) (UniProt P33681 35-242); experiment: Direct Bind ELISA, antigen on plate
Protocol: as §1, §2, §3

[4] = molecular target: T2, VEGF (UniProt P15692 27-191, limits assumed); experiment: direct bind ELISA, reference antibody
T2 construct: bought antigen coated on the ELISA plate

[5] = molecular target: T1, CD40/FC (CD40 ECD/FC chimera-His tag); experiment: Direct Bind ELISA, antigen on plate; C-terminal VD
Protocol: as §1, §2, §3

[6] = molecular target: T3, CD-19 (UniProt P15391 20-291, limits assumed); experiment: Direct Bind ELISA, antigen on plate; N-terminal VD
T3 construct: construct unknown
T3 sequence (looked up): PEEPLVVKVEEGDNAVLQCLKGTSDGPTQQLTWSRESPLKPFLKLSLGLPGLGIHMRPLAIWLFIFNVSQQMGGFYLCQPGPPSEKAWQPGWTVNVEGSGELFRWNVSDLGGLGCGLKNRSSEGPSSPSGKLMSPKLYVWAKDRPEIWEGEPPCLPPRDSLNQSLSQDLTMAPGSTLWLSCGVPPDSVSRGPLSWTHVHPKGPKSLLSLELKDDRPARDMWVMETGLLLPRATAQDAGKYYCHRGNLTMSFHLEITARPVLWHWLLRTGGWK
Protocol: as §1, §2, §3

[7] = molecular target: CD22/FC (Siglec-2 ECD/FC chimera) (UniProt P20273 20-687); experiment: Direct Bind ELISA, antigen on plate
Protocol: as §1, §2, §3

[8] = molecular target: T3, CD-19; experiment: Direct Bind ELISA, antigen on plate; C-terminal VD
Protocol: as §1, §2, §3

T1 sequence (P25942 21-193 limits assumed, change not shown): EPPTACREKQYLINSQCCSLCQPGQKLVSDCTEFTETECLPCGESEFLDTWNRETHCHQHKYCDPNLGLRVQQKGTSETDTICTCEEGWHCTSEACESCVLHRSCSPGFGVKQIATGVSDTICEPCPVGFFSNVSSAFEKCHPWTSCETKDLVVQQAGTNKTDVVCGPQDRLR
T2 sequence (P15692 other isoform, or with tags, fused parts or gaps limits assumed): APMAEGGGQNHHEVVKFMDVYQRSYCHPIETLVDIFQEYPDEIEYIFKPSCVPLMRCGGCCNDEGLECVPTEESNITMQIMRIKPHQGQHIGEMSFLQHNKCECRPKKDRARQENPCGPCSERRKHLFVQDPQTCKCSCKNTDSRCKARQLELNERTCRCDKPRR
CD80/FC (B7-1 ECD/FC chimera), sequence (P33681 35-242, change not shown): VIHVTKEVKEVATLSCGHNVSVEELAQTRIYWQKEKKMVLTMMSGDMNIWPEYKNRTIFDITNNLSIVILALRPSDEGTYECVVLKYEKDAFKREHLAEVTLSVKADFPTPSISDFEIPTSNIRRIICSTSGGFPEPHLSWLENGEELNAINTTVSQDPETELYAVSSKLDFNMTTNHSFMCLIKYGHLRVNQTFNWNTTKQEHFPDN

B1: AB009 (anti-CD-40 parent antibody) (antibody, IgG1, V domains shown)
VH: QVQLVESGGGVVQPGRSLRLSCAASGFTFSSYGMHWVRQAPGKGLEWVAVISYEESNRYHADSVKGRFTISRDNSKITLYLQMNSLRTEDTAVYYCARDGGIAAPGPDYWGQGTLVTVSS
VL: DIVMTQSPLSLTVTPGEPASISCRSSQSLLYSNGYNYLDWYLQKPGQSPQVLISLGSNRASGVPDRFSGSGSGTDFTLKISRVEAEDVGVYYCMQARQTPFTFGPGTKVDIRR
notes: HC vector V1 (wild-type hIgG1 constant), LC vector V2 (kappa constant); also called AB009VH; AB009VL
Q: B1 was tested. Which EC50 [1] did it give?
A: 0.99 nM

B2: DVD010 (CD-40 and CD-20 DVD-Ig) (bispecific antibody, IgG1)
VH: QVQLVESGGGVVQPGRSLRLSCAASGFTFSSYGMHWVRQAPGKGLEWVAVISYEESNRYHADSVKGRFTISRDNSKITLYLQMNSLRTEDTAVYYCARDGGIAAPGPDYWGQGTLVTVSSASTKGPQVQLQQPGAELVKPGASVKMSCKASGYTFTSYNMHWVKQTPGRGLEWIGAIYPGNGDTSYNQKFKGKATLTADKSSSTAYMQLSSLTSEDSAVYYCARSTYYGGDWYFNVWGAGTTVTVSA
VL: DIVMTQSPLSLTVTPGEPASISCRSSQSLLYSNGYNYLDWYLQKPGQSPQVLISLGSNRASGVPDRFSGSGSGTDFTLKISRVEAEDVGVYYCMQARQTPFTFGPGTKVDIRRTVAAPQIVLSQSPAILSPSPGEKVTMTCRASSSVSYIHWFQQKPGSSPKPWIYATSNLASGVPVRFSGSGSGTSYSLTISRVEAEDAATYYCQQWTSNPPTFGGGTKLEIKR
notes: Outer AB009, inner AB001; HC vector V1 (wild-type hIgG1 constant), LC vector V2 (kappa constant); also called DVD010H; DVD010L
Q: Which EC50 [2] does the source give for B2 here?
A: 0.82 nM

B3: AB007 (anti-CD-80 parent antibody) (antibody, IgG1, V domains shown)
VH: QVQLQESGPGLVKPSETLSLTCAVSGGSISGGYGWGWIRQPPGKGLEWIGSFYSSSGNTYYNPSLKSQVTISTDTSKNQFSLKLNSMTAADTAVYYCVRDRLFSVVGMVYNNWFDVWGPGVLVTVSS
VL: ESALTQPPSVSGAPGQKVTISCTGSTSNIGGYDLHWYQQLPGTAPKLLIYDINKRPSGISDRFSGSKSGTAASLAITGLQTEDEADYYCQSYDSSLNAQVFGGGTRLTVLG
notes: HC vector V1 (wild-type hIgG1 constant), LC vector V3 (lambda constant); also called AB007VH; AB007VL
Q: Which EC50 [3] does the source give for B3 here?
A: 0.77 nM

B4: AB071 (antibody, human IgG1, kappa, L234A L235A, V domains shown)
VH: EVQLVESGGGLVQPGGSLRLSCAASGFTINASWIHWVRQAPGKGLEWVGAIYPYSGYTNYADSVKGRFTISADTSKNTAYLQMNSLRAEDTAVYYCARWGHSTSPWAMDYWGQGTLVTVSS
VL: DIQMTQSPSSLSASVGDRVTITCRASQVIRRSLAWYQQKPGKAPKLLIYAASNLASGVPSRFSGSGSGTDFTLTISSLQPEDFATYYCQQSNTSPLTFGQGTKVEIKR
Q: For B4, which EC50 [4] is on record?
A: 35.4 nM and 26.6 nM

B5: DVD009 (CD-20 and CD-40 DVD-Ig) (bispecific antibody, IgG1)
VH: QVQLQQPGAELVKPGASVKMSCKASGYTFTSYNMHWVKQTPGRGLEWIGAIYPGNGDTSYNQKFKGKATLTADKSSSTAYMQLSSLTSEDSAVYYCARSTYYGGDWYFNVWGAGTTVTVSAASTKGPQVQLVESGGGVVQPGRSLRLSCAASGFTFSSYGMHWVRQAPGKGLEWVAVISYEESNRYHADSVKGRFTISRDNSKITLYLQMNSLRTEDTAVYYCARDGGIAAPGPDYWGQGTLVTVSS
VL: QIVLSQSPAILSPSPGEKVTMTCRASSSVSYIHWFQQKPGSSPKPWIYATSNLASGVPVRFSGSGSGTSYSLTISRVEAEDAATYYCQQWTSNPPTFGGGTKLEIKRTVAAPDIVMTQSPLSLTVTPGEPASISCRSSQSLLYSNGYNYLDWYLQKPGQSPQVLISLGSNRASGVPDRFSGSGSGTDFTLKISRVEAEDVGVYYCMQARQTPFTFGPGTKVDIRR
notes: Outer AB001, inner AB009; HC vector V1 (wild-type hIgG1 constant), LC vector V2 (kappa constant); also called DVD009H; DVD009L
Q: B5 was tested. Which EC50 [5] did it give?
A: 3.55 nM

B6: DVD002 (CD-19 and CD-20 DVD-Ig) (bispecific antibody, IgG1)
VH: QVQLQQSGAELVRPGSSVKISCKASGYAFSSYWMNWVKQRPGQGLEWIGQIWPGDGDTNYNGKFKGKATLTADESSSTAYMQLSSLASEDSAVYFCARRETTTVGRYYYAMDYWGQGTSVTVSSASTKGPQVQLQQPGAELVKPGASVKMSCKASGYTFTSYNMHWVKQTPGRGLEWIGAIYPGNGDTSYNQKFKGKATLTADKSSSTAYMQLSSLTSEDSAVYYCARSTYYGGDWYFNVWGAGTTVTVSA
VL: DILLTQTPASLAVSLGQRATISCKASQSVDYDGDSYLNWYQQIPGQPPKLLIYDASNLVSGIPPRFSGSGSGTDFTLNIHPVEKVDAATYHCQQSTEDPWTFGGGTKLEIKRTVAAPQIVLSQSPAILSPSPGEKVTMTCRASSSVSYIHWFQQKPGSSPKPWIYATSNLASGVPVRFSGSGSGTSYSLTISRVEAEDAATYYCQQWTSNPPTFGGGTKLEIKR
notes: Outer AB006, inner AB001; HC vector V1 (wild-type hIgG1 constant), LC vector V2 (kappa constant); also called DVD002H; DVD002L
Q: With B6 as the binder, how does the EC50 [6] read?
A: 0.07 nM

B7: AB008 (anti-CD-22 parent antibody) (antibody, IgG1, V domains shown)
VH: QVQLVQSGAEVKKPGSSVKVSCKASGYTFTSYWLHWVRQAPGQGLEWIGYINPRNDYTEYNQNFKDKATITADESTNTAYMELSSLRSEDTAFYFCARRDITTFYWGQGTTVTVSS
VL: DIQLTQSPSSLSASVGDRVTMSCKSSQSVLYSANHKNYLAWYQQKPGKAPKLLIYWASTRESGVPSRFSGSGSGTDFTFTISSLQPEDIATYYCHQYLSSWTFGGGTKLEIKR
notes: HC vector V1 (wild-type hIgG1 constant), LC vector V2 (kappa constant); also called AB008VH; AB008VL
Q: B7 was tested. Which EC50 [7] did it give?
A: 3.44 nM

B8: DVD001 (CD-20 and CD-19 DVD-Ig) (bispecific antibody, IgG1)
VH: QVQLQQPGAELVKPGASVKMSCKASGYTFTSYNMHWVKQTPGRGLEWIGAIYPGNGDTSYNQKFKGKATLTADKSSSTAYMQLSSLTSEDSAVYYCARSTYYGGDWYFNVWGAGTTVTVSAASTKGPQVQLQQSGAELVRPGSSVKISCKASGYAFSSYWMNWVKQRPGQGLEWIGQIWPGDGDTNYNGKFKGKATLTADESSSTAYMQLSSLASEDSAVYFCARRETTTVGRYYYAMDYWGQGTSVTVSS
VL: QIVLSQSPAILSPSPGEKVTMTCRASSSVSYIHWFQQKPGSSPKPWIYATSNLASGVPVRFSGSGSGTSYSLTISRVEAEDAATYYCQQWTSNPPTFGGGTKLEIKRTVAAPDILLTQTPASLAVSLGQRATISCKASQSVDYDGDSYLNWYQQIPGQPPKLLIYDASNLVSGIPPRFSGSGSGTDFTLNIHPVEKVDAATYHCQQSTEDPWTFGGGTKLEIKR
notes: Outer AB001, inner AB006; HC vector V1 (wild-type hIgG1 constant), LC vector V2 (kappa constant); also called DVD001H; DVD001L
Q: Which EC50 [8] does the source give for B8 here?
A: 12.9 nM
